Reference: PMC9224634, “Noninvasive Mapping of Angiotensin Converting Enzyme-2 in Pigeons Using Micro Positron Emission Tomography” (Life, 2022)

Columns and labels:
[1] = tested on: ACE2; assay: in vivo; conditions: female, iv, 15 MBq
Description: Injection route: Chloral hydrate 10% was used for intramuscular anesthesia.
Micro PET/CT imaging: Four healthy pigeons (female) were injected with 15 MBq ^68Ga-HZ20 through the pterygoid vein, and then dynamic imaging was performed for 40 min to observe the dynamic distribution of the probe in the body. The images were acquired for 30 min, 40 min and 60 min, with a single PET scan time of 600 s. The Avator software was used to display the images, outline the region of interest for the main organs, record the maximum standard uptake values for the outlined areas, and calculate the dynamic changes in SUVmax for different organs. At the end of the 60 min imaging, the pigeons were euthanized and the main organs were obtained for in vitro imaging.

[2] = molecular target: ACE2; parameters: method as in earlier work; conditions: ACE2-specific peptide inhibitor; ref 10 (Huang et al.); cited from earlier work
[3] = molecular target: ACE2; parameters: method as in PMID 34174177; conditions: cited from earlier work

Compound	SUV at 40 min ([1]; SUVmax heart, final) [SUV]	SUV at 0 h ([1]; SUVmax heart, initial) [SUV]	SUV at 20 min ([1]; SUVmax kidney) [SUV]	SUV at 20 min ([1]; SUVmax lung) [SUV]	SUV at 1 h ([1]; kidney uptake (SUV)) [SUV]	SUV at 1 h ([1]; liver uptake (SUV)) [SUV]	SUV at 40 min ([1]; liver uptake (SUVmax)) [SUV]	SUV ([1]; liver uptake (SUVmax), initial) [SUV]	SUV at 1 h ([1]; lung uptake (SUV)) [SUV]	SUV at 1 h ([1]; stomach uptake (SUV)) [SUV]	SUV at 40 min ([1]; stomach uptake (SUVmax), peak) [SUV]	Ki [2] [µM]	Kd [3] [µM]
CC(C)C[C@@H]1NC(=O)[C@@H]2CCCN2C(=O)[C@H](CO)NC(=O)[C@@H](NC(=O)[C@H](Cc2c[nH]cn2)NC(=O)[C@H](CO)NC(=O)[C@H](Cc2ccc(O)cc2)NC(=O)[C@H](CC(=O)O)NC(=O)CNC(=O)CN2CCN(CC(=O)O)CCN(CC(=O)O)CCN(CC(=O)O)CC2)CSSC[C@@H](C(=O)N[C@H](C(=O)N[C@@H](Cc2ccc(O)cc2)C(=O)N2CCC[C@H]2C(=O)N[C@@H](CC(=O)O)C(=O)N2CCC[C@H]2C(=O)N[C@@H](CCC(=O)O)C(=O)NCC(=O)NCC(=O)NCC(N)=O)[C@@H](C)O)NC(=O)[C@H](CCCCN)NC(=O)[C@H](Cc2c[nH]c3ccccc23)NC(=O)[C@H](Cc2c[nH]c3ccccc23)NC(=O)[C@@H]2CCCN2C(=O)[C@H](Cc2ccc(O)cc2)NC(=O)[C@H](Cc2ccc(O)cc2)NC(=O)[C@H](CCCNC(=N)N)NC1=O [68Ga-HZ20, metal not drawn]	0.84	3.08	6.95	1.11	3.05	0.51	2.51	0.91	0.41	0.52	0.63	–	–
Ac-GDYSHCSPLRYYPWWKCTYPDPEGGG-NH2 (disulfide) [DX600]	–	–	–	–	–	–	–	–	–	–	–	0.0028	0.0987
